We go through nine sequences from patent publication US9289478B2, “Formulations of tumour-associated peptides binding to human leukocyte antigen (HLA) class I or class II molecules for vaccine” (IMMATICS BIOTECHNOLOGIES GMBH, priority 2008, dated 2016).

Format in all cases: physicochemical
Data set [1] is described as follows: HPLC-assay for in-use stability after reconstitution with 4.2% sodium hydrogen carbonate solution (Example 3, peptides SEQ ID NO 11-23). As to the method: For clinical trials the above described formulation is dissolved in 700 μl sodium hydrogen carbonate (4.2%). To dissolve the lyophilisate, the vial and the diluent shall be shaken vigorously for 1 minute, check whether solution is clear, otherwise continue shaking for another minute until the solution is clear. Administration of 500 μL of the solution has to occur within 1 h after reconstitution. Dissolved lyophilisate may be stored aseptically at room temperature for up to 1 hour following reconstitution.
(§1) Identity, purity and peptide content are determined by analytical RP-HPLC chromatography. Detection wavelength was 220 nm.

Data set [2] is described as follows: HPLC-assay for stability of peptides in lyophilised formulation on storage for 3 months (Example 4). Particulars: for stability of peptides in formulation, 1 M: 1 month; for stability of peptides in formulation, 2 M: 2 months; for stability of peptides in formulation, 3 M: 3 months. As to the method: as §1
The nature of data set [3]: HPLC-assay for in-use stability after reconstitution with 4.2% sodium hydrogen carbonate solution (Example 2, peptides SEQ ID NO 1-10). Here is the method: Resolubilization procedure: For clinical trials the above described formulation is dissolved in 700 μl sodium hydrogen carbonate (4.2%). Remove plastic cap from one vial. Unpack and remove sodium hydrogen carbonate (4.2%) from the refrigerator at least 30 min before resolubilization to bring them up to room temperature before injection. Prepare syringe and needle for reconstitution. Use aseptic technique to take 700 μL of diluent for reconstitution of the lyophilisate. To dissolve the lyophilisate, the vial and the diluent shall be shaken vigorously for 1 minute, check whether solution is clear, otherwise continue shaking for another minute until the solution is clear. 10 to 30 minutes after GM-CSF injection, use a new syringe to administer 500 μL reconstituted formulation i.d. at the same site. Administration has to occur within 1 h after reconstitution. Dissolved lyophilisate may be stored aseptically at room temperature for up to 1 hour following reconstitution.
However, a decrease of two specific peptides, i.e. IMA-CCN-001 and IMA-RGS-001 took place (see Table 6). As these peptides contain a cysteine residue, time-depending dimerization takes place.
as §1

The mark [4] stands for this setting: +mannitol/lutrol, 1 h after reconstitution.
The mark [5] stands for this setting: +mannitol/lutrol, 2 h after reconstitution.
The mark [6] stands for this setting: +mannitol/lutrol, 3 h after reconstitution.
Where [7] appears, read: +mannitol/lutrol, 4 h after reconstitution.
Setting [8] is: +mannitol/lutrol, 5 h after reconstitution.
Setting [9] is: +mannitol/lutrol, 6 h after reconstitution.
Where [10] appears, read: +mannitol/lutrol, Initial (starting value set to 100%).
Setting [11] is: no excipients, 1 h after reconstitution.
Setting [12] is: no excipients, 2 h after reconstitution.
[13] abbreviates: no excipients, 3 h after reconstitution.
The mark [14] stands for this setting: no excipients, Initial (starting value set to 100%).

As to “AIIDGVESV (listed as Homo sapiens) [PTP-003, Protein tyrosine phosphatase, receptor-type, Z polypeptide 1 peptide]”, the “in-use stability, Peptide [%]” value is listed as 100.3% in data set [1] (+Mannitol/Lutrol, 2h); 100.5% in data set [1] (+Mannitol/Lutrol, 4h); 100.1% in data set [1] (+Mannitol/Lutrol, 6h); 100.0% in data set [1] (+Mannitol/Lutrol, Initial); 100.4% in data set [1] (no excipients, 2h); 100.9% in data set [1] (no excipients, 4h). The “in-use stability, Peptide [%]” value in data set [1] (no excipients, 6h) is recorded as 96.1%; in data set [1] (no excipients, Initial) it was 100.0%. For the same sequence, the results for the “stability of peptides in formulation, 1 M” value in data set [2] (+5° C. +/- 3° C.), in data set [2] (+25° C. +/- 2° C.) and in data set [2] (-20° C. +/- 5° C.) were 99.07 % of Initial, 98.29 % of Initial and 99.11 % of Initial, respectively. In addition, the “stability of peptides in formulation, 2 M” value in data set [2] (+5° C. +/- 3° C.) was 97.95 % of Initial; in data set [2] (+25° C. +/- 2° C.), 97.11 % of Initial; in data set [2] (-20° C. +/- 5° C.), 97.48 % of Initial. For the same sequence, the “stability of peptides in formulation, 3 M” value in data set [2] (+5° C. +/- 3° C.) was 98.68 % of Initial; in data set [2] (+25° C. +/- 2° C.) it was 98.29 % of Initial; in data set [2] (-20° C. +/- 5° C.), 98.57 % of Initial. For the same sequence, the “stability of peptides in formulation, INITIAL” value in data set [2] (+5° C. +/- 3° C.), in data set [2] (+25° C. +/- 2° C.) and in data set [2] (-20° C. +/- 5° C.) was 100.0% each time.

Consider “ALADGVQKV (listed as Homo sapiens) [APO-001, Apolipoprotein L1 tumour-associated peptide]”, for which the “in-use stability, peptide by HPLC-assay” value in data set [3] (setting [4]) was 99.8%; in data set [3] (setting [5]) it was 99.8%; in data set [3] (setting [6]) it was 100.7%; in data set [3] (setting [7]), 100.9%; in data set [3] (setting [8]), 99.6%; in data set [3] (setting [9]) it was 101.5%. For the same sequence, the “in-use stability, peptide by HPLC-assay” value in data set [3] (setting [10]) was 100.0%; in data set [3] (setting [11]), 100.0%; in data set [3] (setting [12]) it was 97.4%; in data set [3] (setting [13]), 97.4%; in data set [3] (setting [14]) it was 100.0%.

Take “ALFDGDPHL (listed as Homo sapiens) [K67-001, KIAA0367 tumour-associated peptide]”: the “in-use stability, peptide by HPLC-assay” value in data set [3] (setting [4]) was 99.8%; in data set [3] (setting [5]) it was 100.4%; in data set [3] (setting [6]), 101.6%; in data set [3] (setting [7]), 101.8%; in data set [3] (setting [8]) it was 100.6%; in data set [3] (setting [9]), 102.5%. The “in-use stability, peptide by HPLC-assay” value in data set [3] (setting [10]) was found to be 100.0%; in data set [3] (setting [11]), 100.8%; in data set [3] (setting [12]), 99.2%; in data set [3] (setting [13]), 97.5%; in data set [3] (setting [14]), 100.0%.

On to “ALWAWPSEL (listed as Homo sapiens) [BCA-002, Brevican tumour-associated peptide]”, for which the “in-use stability, Peptide [%]” value in data set [1] (+Mannitol/Lutrol, 2h) is reported as 99.8%; in data set [1] (+Mannitol/Lutrol, 4h), 99.6%; in data set [1] (+Mannitol/Lutrol, 6h), 98.9%; in data set [1] (+Mannitol/Lutrol, Initial), 100.0%; in data set [1] (no excipients, 2h), 99.9%; in data set [1] (no excipients, 4h), 100.1%. Also, the “in-use stability, Peptide [%]” value amounted to 95.4% in data set [1] (no excipients, 6h) and 100.0% in data set [1] (no excipients, Initial). The “stability of peptides in formulation, 1 M” value is listed as 99.13 % of Initial in data set [2] (+5° C. +/- 3° C.), 98.20 % of Initial in data set [2] (+25° C. +/- 2° C.) and 99.17 % of Initial in data set [2] (-20° C. +/- 5° C.). For the same sequence, the “stability of peptides in formulation, 2 M” value in data set [2] (+5° C. +/- 3° C.) is 98.04 % of Initial; in data set [2] (+25° C. +/- 2° C.), 97.05 % of Initial; in data set [2] (-20° C. +/- 5° C.), 97.61 % of Initial. Moreover, the “stability of peptides in formulation, 3 M” value in data set [2] (+5° C. +/- 3° C.) is reported as 98.73 % of Initial; in data set [2] (+25° C. +/- 2° C.), 97.88 % of Initial; in data set [2] (-20° C. +/- 5° C.) it was 98.61 % of Initial. Also, the “stability of peptides in formulation, INITIAL” value in data set [2] (+5° C. +/- 3° C.), in data set [2] (+25° C. +/- 2° C.) and in data set [2] (-20° C. +/- 5° C.) was 100.0% each time.

Take “LLGATCMFV (listed as Homo sapiens) [CCN-001, Cyclin D1 tumour-associated peptide]”: the “in-use stability, peptide by HPLC-assay” value in data set [3] (setting [4]) is 95.6%; in data set [3] (setting [5]) it was 92.2%; in data set [3] (setting [6]) it was 91.3%; in data set [3] (setting [7]), 89.2%; in data set [3] (setting [8]) it was 86.1%; in data set [3] (setting [9]), 85.9%. Besides, the “in-use stability, peptide by HPLC-assay” value is 100.0% in data set [3] (setting [10]); 82.8% in data set [3] (setting [11]); 72.1% in data set [3] (setting [12]); 63.3% in data set [3] (setting [13]); 100.0% in data set [3] (setting [14]). For the same sequence, the “stability after reconstitution (in words)” value in data set [3] (Example 2 formulation, 4.2% sodium hydrogen carbonate) is “decrease”.

For “SQDDIKGIQKLYGKRS (listed as Homo sapiens) [MMP-001, Matrix metalloproteinase 7 tumour-associated peptide]”, the “in-use stability, peptide by HPLC-assay” value is reported as 99.5% in data set [3] (setting [4]); 99.3% in data set [3] (setting [5]); 100.2% in data set [3] (setting [6]); 100.4% in data set [3] (setting [7]); 98.9% in data set [3] (setting [8]); 100.9% in data set [3] (setting [9]). Moreover, the “in-use stability, peptide by HPLC-assay” value in data set [3] (setting [10]) worked out at 100.0%; in data set [3] (setting [11]), 98.6%; in data set [3] (setting [12]) it was 97.1%; in data set [3] (setting [13]), 95.7%; in data set [3] (setting [14]), 100.0%.

In the case of “SVFAGVVGV (listed as Homo sapiens) [GUC-001, GUCY1A3 tumour-associated peptide]”, the “in-use stability, peptide by HPLC-assay” value in data set [3] (setting [4]) is 99.7%; in data set [3] (setting [5]), 99.5%; in data set [3] (setting [6]), 100.6%; in data set [3] (setting [7]) it was 100.8%; in data set [3] (setting [8]) it was 99.7%; in data set [3] (setting [9]), 101.6%. For the same sequence, the “in-use stability, peptide by HPLC-assay” value turned out to be 100.0% in data set [3] (setting [10]); 100.0% in data set [3] (setting [11]); 100.0% in data set [3] (setting [12]); 98.6% in data set [3] (setting [13]); 100.0% in data set [3] (setting [14]).

Turning to “VMAGDIYSV (listed as Homo sapiens) [ADF-002, Adipophilin tumour-associated peptide]”, the “in-use stability, peptide by HPLC-assay” value is 99.9% in data set [3] (setting [4]); 100.0% in data set [3] (setting [5]); 101.1% in data set [3] (setting [6]); 101.2% in data set [3] (setting [7]); 99.9% in data set [3] (setting [8]); 101.9% in data set [3] (setting [9]). The “in-use stability, peptide by HPLC-assay” value turned out to be 100.0% in data set [3] (setting [10]); 100.9% in data set [3] (setting [11]); 100.0% in data set [3] (setting [12]); 97.2% in data set [3] (setting [13]); 100.0% in data set [3] (setting [14]).

Turning to “YVDPVITSI (listed as Homo sapiens) [MET-001, c-met proto-oncogene tumour-associated peptide]”, the “in-use stability, peptide by HPLC-assay” value was 99.8% in data set [3] (setting [4]); 99.8% in data set [3] (setting [5]); 101.0% in data set [3] (setting [6]); 101.1% in data set [3] (setting [7]); 99.8% in data set [3] (setting [8]); 101.7% in data set [3] (setting [9]). Further, the “in-use stability, peptide by HPLC-assay” value in data set [3] (setting [10]) came to 100.0%; in data set [3] (setting [11]) it was 100.0%; in data set [3] (setting [12]), 99.2%; in data set [3] (setting [13]), 96.7%; in data set [3] (setting [14]) it was 100.0%.
